This is an account of results in patent US5925540A, “Synthetic antifreeze peptide and synthetic gene coding for its production” (Virginia Tech Intellectual Properties, Inc., priority 1991, dated 1999).

In this data set the test system is JM109(DE3). In words: Studies of cell viability in JM109(DE3) strains bearing pX28 or pX284 after IPTG induction. Particulars: WF8R expressed as P10 fusion protein from pX28 / pX284; effects more pronounced in the pX28 harboring strain. Format: cell-based, E.coli. From the text:
The pX28 and pX284 were transformed into JM109(DE3). The proteins produced in either the JM109(DE3)[pX28] or in the JM109(DE3)[pX284] after induction by IPTG in mid- or late-logarithmic growth phase, have been analyzed by sodium dodecyl sulfate (SDS)-polyacrylamide gel electrophoresis (SDS-PAGE). […] Studies of cell viability in these strains have shown that both strains are adversely affected with respect to growth and stability of the plasmid (these effects were more pronounced in the pX28 harboring strain). […] To avert this problem the applicants decided to protect the fusion protein from intracellular degradation, as well as to protect the cells from the toxicity of WF8R, by adding to the fusion a C-terminal end derived from E.coli β-galactosidase.

B1: WF8R: synthetic antifreeze peptide of 98 amino acids with eight eleven-amino-acid repeats, modeled on winter flounder AFP, expressed in E. coli (protein)
chain: MSTASDAAAAAAATAATAAAAAAATAATAAAAAAATAATAAAAAAATAATAAAAAAATAATAAAAAAATAATAAKAAALTAANAAAAAAATAAAAARG
As to B1, the “toxicity to the host cells (growth and stability of the plasmid adversely affected)” value was “toxic to the cells”.
